Molecular target: NHR2-mH (TAT- and NLS-free NHR2 protein)
Assay: cross-linking; 20 μM protein in PBS, 0.01% glutaraldehyde, room temperature, various times; SDS-PAGE, coomassie staining

Substance “NHR2-mH (TAT- and NLS-free NHR2 protein) (domain or fragment)” has a stoichiometry N of 4.
